Here are results for 7 molecules from patent US20240190985A1 (published 2024).

Experiment [1] deals with T1, SUMO-CD99 fusion protein (SUMO fused with the extracellular domain of CD99, residues 23-122) (UniProt P14209 23-122, biotin on the AviTag (BirA, in vitro)).
T1 chain: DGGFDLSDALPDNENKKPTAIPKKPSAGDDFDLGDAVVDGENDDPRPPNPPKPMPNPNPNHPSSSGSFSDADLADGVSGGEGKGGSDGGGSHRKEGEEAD
Description: bead-based titration (flow cytometry); apparent KD, nM Fv, scFv-Fc. A general note: In flow cytometry, cells or beads pass a laser one at a time.

Experiment [2] has as its target T2, CD99 endogenously expressed on cells (Jurkat, KOPT-K1) (UniProt P14209 23-185, O-linked glycosylation (natural, on cells)).
T2 chain: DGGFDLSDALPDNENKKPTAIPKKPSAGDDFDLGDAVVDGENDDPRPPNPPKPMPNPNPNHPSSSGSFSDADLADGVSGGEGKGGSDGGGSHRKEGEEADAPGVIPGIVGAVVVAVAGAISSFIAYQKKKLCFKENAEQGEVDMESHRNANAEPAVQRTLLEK
Description: cell binding; apparent KD; nM molecule.

Experiment [3] has as its target T2, CD99 endogenously expressed on cells …. Description: cell binding; apparent KD; nM Fv.
For experiment [4] the target is unchanged. Description: cell binding; apparent KD; nM Fv; avid.
For experiment [5] the target is unchanged. Description: cell binding; apparent KD; nM molecule; avid.

Substitutions are numbered along the chain they refer to. In names and notes the source's numbering stands. A value given as a limit tells only on which side of the number the result lay.

B1: clone 22 in the scFv-Fc format (Fc fusion)
chain: QVQLQQSGPGLVKPSQTLSLTCAISGDSVSSNSAAWNWIRQSPSRGLEWLGRTYYRSKWYNDYAVSVKSRITINPDTSKNQFSLQLNSVTPEDTAVYYCARGSYGSGLVWGQGTTVTVSSGSASAPTGILGSGGGGSGGGGSGGGGSNFMLTQPHSVSESPGKTVTISCTGSSGSIASNYVQWYQQRPGSAPTTVIYEDDQRPSGVPDRFSGSLDTSSNSASLTISGLRPEDEADYYCQSYDNKDNVVFGGGTKVTVLSGSSSSLEGCKPCICTVPEVSSVFIFPPKPKDVLTITLTPKVTCVVVDISKDDPEVQFSWFVDDVEVHTAQTQPREEQFNSTFRSVSELPIMHQDWLNGKEFKCRVNSAAFPAPIEKTISKTKGRPKAPQVYTIPPPKEQMAKDKVSLTCMITDFFPEDITVEWQWNGQPAENYKNTQPIMDTDGSYFVYSKLNVQKSNWEAGNTFTCSVLHEGLHNHHTEKSLSHSPGKGGGGLNDIFEAQKIEWHESRHHHHHH
As to B1, the Kd in experiment [1] is 18 nM.

B2: 10A1 Fab (Fab, V domains shown)
VH: QVQLQQSGPVLVKPSQTLSLTCAISGDSISSDTTAWSWIRRSPSRGLEWLGWTYYRSKWFNYYAVSVKGRVTINPDTSKNQFSLQLSSVTPEDTAVYYCARGNGNGGMDVWGQGTTVTVSS
VL: SYVLTQPASASVSPGQTARITCSGDALPKQYAYWYQQKPGQAPVLVIFKDSERPSGVPERFSGSSSGTTVTLTISGAQAEDEADYYCQSVDNSGFYQVFGGGTQLTVL
As to B2, the Kd in experiment [2] and in experiment [3] was over 250 nM throughout.

B3: clone 10 in the scFv-Fc format (Fc fusion)
chain: QVQLQQSGPVLVKPSQTLSLTCAISGDSVSSDTTAWSWIRQSPSRGLEWLGWTYYRSKWFNYYAVSVKSRVTINPDTSKNQFSLQLSSVTPEDTAVYYCARGNGNGGMDVWGQGTTVTVSSGILGSGGGGSGGGGSGGGGSSYVLTQPPSVSVSPGQTARITCSGDALPKQYAYWYQQKPGQAPVLVIFKDSERPSGIPERFSGSSSGTTVTLTISGVQAEDEADYYCQSADNSGFYQVFGGGTQLTVLSGSSSSLEGCKPCICTVPEVSSVFIFPPKPKDVLTITLTPKVTCVVVDISKDDPEVQFSWFVDDVEVHTAQTQPREEQFNSTFRSVSELPIMHQDWLNGKEFKCRVNSAAFPAPIEKTISKTKGRPKAPQVYTIPPPKEQMAKDKVSLTCMITDFFPEDITVEWQWNGQPAENYKNTQPIMDTDGSYFVYSKLNVQKSNWEAGNTFTCSVLHEGLHNHHTEKSLSHSPGKGGGGLNDIFEAQKIEWHESRHHHHHH
Regarding B3, the Kd in experiment [1] turned out to be 14 nM.

B4: 10A1 IgG-E345R (antibody)
heavy: QVQLQQSGPVLVKPSQTLSLTCAISGDSISSDTTAWSWIRRSPSRGLEWLGWTYYRSKWFNYYAVSVKGRVTINPDTSKNQFSLQLSSVTPEDTAVYYCARGNGNGGMDVWGQGTTVTVSSASTKGPSVFPLAPSSKSTSGGTAALGCLVKDYFPEPVTVSWNSGALTSGVHTFPAVLQSSGLYSLSSVVTVPSSSLGTQTYICNVNHKPSNTKVDKKVEPKSCDKTHTCPPCPAPEAAGGPSVFLFPPKPKDTLMISRTPEVTCVVVDVSHEDPEVKFNWYVDGVEVHNAKTKPREEQYNSTYRVVSVLTVLHQDWLNGKEYKCKVSNKALGAPIEKTISKAKGQPRRPQVYTLPPSREEMTKNQVSLTCLVKGFYPSDIAVEWESNGQPENNYKTTPPVLDSDGSFFLYSKLTVDKSRWQQGNVFSCSVMHEALHNHYTQKSLSLSPGK
light: SYVLTQPASASVSPGQTARITCSGDALPKQYAYWYQQKPGQAPVLVIFKDSERPSGVPERFSGSSSGTTVTLTISGAQAEDEADYYCQSVDNSGFYQVFGGGTQLTVLRTVAAPSVFIFPPSDEQLKSGTASVVCLLNNFYPREAKVQWKVDNALQSGNSQESVTEQDSKDSTYSLSSTLTLSKADYEKHKVYACEVTHQGLSSPVTKSFNRGEC
For the molecule B4, the Kd in experiment [4] was found to be 16 nM; in experiment [5], 8 nM.

B5: 10A1 IgG-HCscFv (antibody)
heavy: QVQLQQSGPVLVKPSQTLSLTCAISGDSISSDTTAWSWIRRSPSRGLEWLGWTYYRSKWFNYYAVSVKGRVTINPDTSKNQFSLQLSSVTPEDTAVYYCARGNGNGGMDVWGQGTTVTVSSASTKGPSVFPLAPSSKSTSGGTAALGCLVKDYFPEPVTVSWNSGALTSGVHTFPAVLQSSGLYSLSSVVTVPSSSLGTQTYICNVNHKPSNTKVDKKVEPKSCDKTHTCPPCPAPEAAGGPSVFLFPPKPKDTLMISRTPEVTCVVVDVSHEDPEVKFNWYVDGVEVHNAKTKPREEQYNSTYRVVSVLTVLHQDWLNGKEYKCKVSNKALGAPIEKTISKAKGQPREPQVYTLPPSREEMTKNQVSLTCLVKGFYPSDIAVEWESNGQPENNYKTTPPVLDSDGSFFLYSKLTVDKSRWQQGNVFSCSVMHEALHNHYTQKSLSLSPGKSSGSSGSSSSSGSSSQVQLQQSGPVLVKPSQTLSLTCAISGDSISSDTTAWSWIRRSPSRGLEWLGWTYYRSKWFNYYAVSVKGRVTINPDTSKNQFSLQLSSVTPEDTAVYYCARGNGNGGMDVWGQGTTVTVSSGSSSSSSGSSGSSSSSYVLTQPASASVSPGQTARITCSGDALPKQYAYWYQQKPGQAPVLVIFKDSERPSGVPERFSGSSSGTTVTLTISGAQAEDEADYYCQSVDNSGFYQVFGGGTQLTVL
light: B4 light
In the case of B5, the Kd in experiment [4] stood at 5.3 nM; in experiment [5], 1.3 nM.

B6: 10A1 IgG-RGY (antibody)
heavy: B4 heavy with E434G, S444Y
light: B4 light
In the case of B6, the Kd in experiment [4] came to 6.2 nM; in experiment [5] it was 0.5 nM.

B7: 10A1 IgG-LALA (antibody)
heavy: B4 heavy with R349E
light: B4 light
As for B7, the results for the Kd in experiment [4] and in experiment [5] were 5.4 nM and 2.7 nM, respectively.
